Assay results as given in patent publication US10526691B2, “Functionalized surface” (priority 2015, dated 2020).
Ends that are not written are not given here.

Columns and labels:
[1] = Peptide attachment to nitrided / nitrocarburised steel types, fluorescence microscopy pixel count; type: physicochemical; conditions: FIG. 1
Method: Nitrided metal surfaces were incubated overnight at room temperature on a rotamixer in a solution comprising a 9:0.5:0.5 ratio of dimethylformamide (DMF), DIPIA and HBTU, respectively, and 0.5 µg/ml of the peptide […] (SEQ ID NO: 5) tagged with a fluorescent label. Following incubation, surfaces were washed with DMF, which was replenished every 5 minutes for 50 minutes, followed by saline, which was also replenished every 5 minutes for 50 minutes, before being left to air dry.
(§1) The peptide percentage surface coverage of the metal was assessed by the use of fluorescent peptides and microscopy. Peptide coated metal was viewed by a fluorescence microscope at an exposure of 1.55 s using a 10× objective. Nine images for each 1 cm^2 piece of steel were obtained. Images were analysed using ImageJ software (NIH, MD, USA). The threshold from control images, obtained from nitrided metal which had not been treated with peptide, was adjusted until all of the pixels were removed, leaving an image with no staining. This acted as a control baseline. Images from corresponding experimental samples were then adjusted to this threshold value and the residual pixel count then recorded as a measure of peptide attachment.

[2] = Peptide fluorescence on nitrided titanium after environmental treatments; type: physicochemical; conditions: FIG. 9
Method: The durability of immobilized peptide on the surface of nitrided titanium was assessed following different environmental treatments, as shown in FIG. 9. […] (SEQ ID NO: 5)-coated titanium was incubated in control PBS solution, trypsin, Dettola or treated with sandpaper at room temperature for a suitable time which depended on the treatment used. The mean pixel number above the threshold was then assessed by fluorescence microscopy. Importantly, peptide fluorescence was retained after any of the environmental treatments, indicating a strong and durable interaction between peptide and metal.

bacteria [3] = experiment: Bacterial growth (absorbance) on peptide-coated nitrided titanium used as growth plate; type: cell-based; conditions: antimicrobial-peptide-coated nitrided titanium, in comparison to the controls; FIG. 10
Method: Nitrided titanium was prepared by Metaltech, and coated as described previously with the peptide […] (SEQ ID NO: 5), aside from a control (peptide) group in which nitrided titanium was coated with a non-antimicrobial peptide, and a control (titanium) group where the nitrided titanium remained uncoated. A positive control group, consisting of uncoated tissue culture plastic, was also used. The surfaces were washed and used as growth plates for bacteria. One group of antimicrobial peptide-coated titanium surfaces was immediately used as a growth plate for bacteria (treatment (immediate)). Another antimicrobial peptide-coated titanium group (treatment (environment)) was treated with PBS, followed by trypsin/EDTA, followed by Dettol followed by sandpapering, following which the surfaces were used as a growth plate for bacteria. The Absorbance relates to the bacteria number growing on the surface after incubation (FIG. 10). Low values indicate no bacterial growth, while high values indicate high numbers of bacteria.

bacteria [4] = experiment: Peptide-coated nitrided steel surfaces in a hospital unit over three months, bacteria counts
Method: A nitrided steel surface was coated with the peptide […] (SEQ ID NO: 5). The surface was dip-coated in a mixture of the peptide (3 µl of 10 mg/ml peptide per cm^2 of metal) and a catalyst (HBTU/DIEA mix) which adhered the peptide to the surface. Coating was carried out at room temperature for 12 hours.
Coated and uncoated steel surfaces were installed in a hospital unit, in the Accident and Emergency room, Operating Theatre, Ward 1 and the associated bathroom. Control surfaces and coated surfaces were situated in identical locations and tested over three months. After use the samples and data collected were sent to the University of Birmingham for analysis.

[5] = Peptide fluorescence on nitrided titanium over 1 to 4 weeks in PBS; type: physicochemical; conditions: FIG. 8; for change of pixel number: nitrided titanium in PBS
Method: Having established the durability and the efficacy of immobilized peptides on a steel surface, the efficacy of peptides immobilized on a titanium surface was assessed. Nitrided titanium was prepared by Metaltech. […] (SEQ ID NO: 5), tagged with a fluorescent label, was immobilised on the surface of the nitrided titanium as described previously. Peptide-coated samples were incubated in PBS solution at room temperature for between 1 and 4 weeks, following which fluorescence, and the resulting pixel number above threshold, was assessed as described previously by fluorescence microscopy.

bacteria [6] = experiment: Long term study of peptide-coated surfaces on taps in a medical school, one year; conditions: taps in toilets of a medical school; after 12 months; FIG. 13
Excerpt: The peptide-coated surfaces described in Examples 8 and 9 were installed in a medical school. The surfaces were placed on taps in the toilets and were swabbed over a period of one year.

[7] = system: colony forming unit (CFU) counts; experiment: CFU count on peptide-coated versus control nitrided α2 steel attached to areas with high predicted CFU counts; conditions: α2 steel coated with unlabelled peptide; swabs on days 1, 2, 7, 8 and 9; all areas tested; FIG. 7
Method: α2 steel was prepared using a standard nitriding process and coated with 1 µg/ml of the unlabelled peptide […] (SEQ ID NO: 5) using the method as described in Example 1. Peptide coated, or control uncoated steel samples were then attached to areas where high colony forming unit (CFU) counts were predicted (e.g. toilet seat, kitchen tap etc.). Cotton wool buds, dipped in saline, were used to swab surfaces on days 1, 2, 7, 8 and 9. Buds were placed in sterelin tubes and used to inoculate blood agar plates, following which plates were incubated for 48 hours at 37° C. before CFU counts were taken.

bacteria [8] = experiment: Peptide-coated nitrided steel surfaces on door handles, city hospital Outpatients area, three months
Method: A further study was carried out in the Outpatients area of a city hospital. This is a very busy area of the hospital and sees a high volume of patient and staff traffic. The peptide used was […] (SEQ ID NO: 5), and the coated steel surfaces were prepared as in Example 8.
Control and coated surfaces were placed on door handles in the Outpatients area. […] We saw 1 colony growth from the surfaces, which is believed to be due to the frequency of use of the surfaces. Surfaces were touched on average every 2 minutes during an observation period and, in a lot of cases, the surfaces had been touched immediately prior to the swabbing being undertaken.

[9] = Peptide coverage of nitrided steel after environmental, cleaning or coating treatments, fluorescence microscopy; type: physicochemical
Method: as §1
Mild steel was nitrided using a standard process for 19 hours at 440° C. by Metaltech. The peptide […] tagged with a fluorescent label was immobilized on the surface of the nitrided steel as described in Example 1. Peptide-coated steel was incubated in the appropriate environmental treatment at room temperature for a suitable time which depended on the treatment used. Samples were washed with saline following treatment and peptide attachment analysed by microscopy as detailed in Example 1.
Mild steel was nitrided using a standard process by Metaltech. The peptide […] (SEQ ID NO: 5) tagged with a fluorescent label was immobilized on the surface of the nitrided steel as described in Example 1. Peptide-coated steel was incubated in the appropriate environmental treatment at room temperature for a suitable time which depended on the treatment used. Samples were washed with saline following treatment and peptide attachment analysed by microscopy as detailed in Example 1.
Steel was nitrided or plasma ferretic nitrocarburised as described in Example 1, after which the peptide […] (SEQ ID NO: 5), tagged with a fluorescent label was immobilised on the nitrided surface as described in Example 1.
Peptide-coated alpha steel samples were incubated in various standard cleaning or coating treatments at room temperature, for a suitable time which depended on the treatment used, in order to determine if any of these treatments affected the attachment of the peptide to the steel. […] This decrease may be partly accounted for by loss of fluorescence over the period of 3 weeks as the steel pieces were repeatedly exposed to light.

S. epidemridis = experiment: Crystal violet absorbance of bacteria adhering to peptide-coated nitrided steel; type: cell-based; conditions: overnight at 37° C., FIG. 14
Method: Nitrided steel was incubated with a solution of an antimicrobial peptide having the sequence RRIYGRGYIRR (SEQ ID NO: 1) (25 µl, 10 mg/ml/cm^2) at room temperature for 1 hour with a HBTU/DIEA catalyst in DMF to produce a coated surface.
Coated surfaces were inoculated with […] bacterial cells (S. epidemridis) and incubated overnight at 37° C. The surfaces were then washed with PBS and stained using Crystal Violet ([…]) for 15 minutes at room temperature. The surfaces were washed three times to remove any residual stain and the stain lifted in 70% ethanol. The absorbance of crystal violet was read at 560 nm to quantify the level of stain (FIG. 14). The amount of stain is directly related to the number of bacteria.

With “RRRRRRGALAGRRRRRRGALAG (also: fluorescent tag, immobilized on steel or titanium) [antimicrobial peptide immobilized covalently on nitrided steel or titanium; fluorescently tagged in the attachment studies]” as the sequence, how does the “preferential binding to steel type” value ([1]; comparison of eight steel types) read?
The value was “highest binding affinity for alpha steel types”.

And the “mean pixel counts (peptide attachment)” value ([1]; eight steel types (α1-3, β1-3, P1-P2), fluorescently tagged peptide)?
Its value is “above 0”.

What about the “peptide fluorescence after treatment” value ([2]; control solution, trypsin or Dettol) of the same sequence?
Its value is “remained similar”.

What about the “peptide fluorescence after treatment” value ([2]; mechanical agitation using sandpaper) of the same sequence?
Its value is “retained, albeit at a lower level”.

What about the “absorbance (bacteria number growing on the surface)” value (bacteria [3]) of the same sequence?
Its value is “very low absorbance values”.

And the “percentage effectiveness of the coated surfaces compared to control surfaces” value (bacteria [4]; hospital setting, all time points over three months, FIG. 11B)?
Its value is ≥ 99%.

What about the “inhibition of bacterial growth on coated surfaces” value (bacteria [4]; hospital unit, three months, FIG. 11) of the same sequence?
The value was “complete inhibition of bacterial growth”.

And the “colony forming units on the one coated plate that showed growth” value (bacteria [4]; month 2, believed due to contamination during swabbing or plating)?
Its value is “one”.

And the “change of pixel number” value ([5]; after 2 weeks)?
Its value is “remained relatively constant”.

And the “change of pixel number” value ([5]; between 1 and 2 weeks)?
The value was “decreased considerably”.

And the pixels above threshold ([5]; nitrided titanium, after 1, 2, 3 and 4 weeks in PBS solution)?
The pixels above threshold was “Pixels were observed above the threshold”.

What about the “inhibition of bacterial growth on treated surfaces” value (bacteria [6]) of the same sequence?
The value was “inhibition of bacterial growth was still observed”.

And the “mean CFU count, peptide coated versus control” value [7]?
Its value is “consistently higher mean CFU count on control pieces of metal”.

What about the “percentage effectiveness of the coated surfaces compared to control surfaces” value (bacteria [8]; city hospital setting, all time points over three months, FIG. 12B) of the same sequence?
The value was ≥ 99%.

What about the “levels of bacteria on peptide-coated surfaces” value (bacteria [8]; door handles, Outpatients area of a city hospital, FIG. 12) of the same sequence?
The value was 1 cfu.

What about the effectiveness (bacteria [8]; door handles, Outpatients area, Example 9) of the same sequence?
Its effectiveness is “greater than 99%”.

What about the “difference in pixel counts between treatments” value ([9]; P2 steel group as printed in the beta steel paragraph, FIG. 5, H=13.7, p=0.033) of the same sequence?
Its value is “significant difference”.

And the “differences in pixel number between treatments” value ([9]; PlasOx 1 steel, FIG. 6, H=15.4 p=0.017)?
Its value is “significant”.

What about the “differences in pixel number between treatments” value ([9]; PlasOx 2 steel, FIG. 6, H=12.7 p=0.048) of the same sequence?
The value was “significant”.

And the “pixel number, PlasOx 2 steel versus PlasOx 1 steel” value ([9]; following environmental treatment, in most instances, FIG. 6)?
The value was “higher for PlasOx 2 steel than PlasOx 1 steel”.

What about the “peptide coverage of nitrided steel before and after environmental treatments” value ([9]; mild steel nitrided 19 hours at 440° C., room temperature, FIG. 2) of the same sequence?
Its value is “remains at a similar level”.

What about the “peptide coverage of nitrided steel following environmental treatment” value ([9]; nitrided mild steel, room temperature, FIG. 3) of the same sequence?
Its value is “remains constant”.

What about the “difference in pixel counts between treatments” value ([9]; α1 steels, FIG. 4, H=19.4 p=0.004) of the same sequence?
The value was “statistically significant difference”.

And the “difference in pixel counts between treatments” value ([9]; α2 steels, FIG. 4, H=12.4, p=0.053)?
Its value is “no significant difference”.

What about the “difference in pixel counts between treatments” value ([9]; α3 steels, FIG. 4, H=12.8, p=0.047) of the same sequence?
Its value is “statistically significant difference”.

What about the “difference in pixel counts between treatments” value ([9]; β1 steels, FIG. 5, H=10.6, p=0.103) of the same sequence?
Its value is “no significant difference”.

And the “difference in pixel counts between treatments” value ([9]; β steels (number not given), FIG. 5, H=10.9, p=0.09)?
The value was “no significant difference”.

With “RRIYGRGYIRR (RRYIGRGYIRR) [antimicrobial peptide coated on nitrided steel]” as the sequence, how does the “number of bacteria adhering to the surface (crystal violet absorbance at 560 nm)” value (S. epidemridis) read?
The value was “significantly reduce the number of bacteria adhering to the surface”.
